Reference: publication PMC10772121 (Scientific Reports, 2024)
“And” between values parts separate entries of the source, which are not always exact repeats. Equal values may be shown once. Values belong to the binder of their own block, whether it stands above or below them.

Legend:
Conditions in all cases: both partners purified
KIR2DL3 F45Y ectodomain = target: T1, KIR2DL3 F45Y ectodomain (Homo sapiens, UniProt P43628-1, F45Y); assay: BLI; lirilumab (IgG1) loaded on AHC (anti-human IgG) biosensors, KIR protein as analyte (two-fold dilutions from 250 nM); Octet RED384, 25 °C, 20 mM MOPS pH 7.5, 150 mM NaCl, 0.1% BSA, 0.02% Tween-20; global 1:1 binding model, at least 4 curves; single replicates
T1 construct: also called KIR2DL3 F45Y (293F); Var4; source: HEK 293F supernatant, purified (EDTA-resistant Ni-NTA, size exclusion chromatography)

[1] = target: T2, KIR2DL1 (Sino Biological 13,145-H08H) (Homo sapiens; allele of bought protein …, UniProt P43626-1); assay: as above
T2 construct: human KIR2DL1, commercially sourced recombinant protein; The catalogue product is recalled to be the extracellular domain with a C-terminal His tag; also called KIR2DL1 (293, Sino Biological); source: bought: Sino Biological 13,145-H08H (293)

KIR2DL3 ectodomain = target: T3, KIR2DL3 ectodomain (Homo sapiens, UniProt P43628-1); assay: as above
T3 construct: also called wild-type KIR2DL3; KIR2DL3 (293F); source: HEK 293F supernatant, purified (EDTA-resistant Ni-NTA, size exclusion chromatography)

KIR2DL3 H50R ectodomain = target: T4, KIR2DL3 H50R ectodomain (Homo sapiens, UniProt P43628-1, H50R); assay: as above
T4 construct: also called KIR2DL3 H50R (293F); Var7; source: HEK 293F supernatant, purified (EDTA-resistant Ni-NTA, size exclusion chromatography)

KIR2DL3 D47N ectodomain = target: T5, KIR2DL3 D47N ectodomain (Homo sapiens, UniProt P43628-1, D47N); assay: BLI; lirilumab (IgG1) loaded on AHC biosensors, KIR2DL3 D47N as analyte (peak concentration 500 nM); Octet RED384, 25 °C, 20 mM MOPS pH 7.5, 150 mM NaCl, 0.1% BSA, 0.02% Tween-20; steady state binding model because the 1:1 model fitted poorly; single replicates
T5 construct: also called KIR2DL3 D47N (293F); Var6; source: HEK 293F supernatant, purified (EDTA-resistant Ni-NTA, size exclusion chromatography)

KIR2DL3 H50R = target: T6, KIR2DL3 H50R (Homo sapiens, UniProt P43628-1, H50R); assay: BLI; lirilumab (IgG1) loaded on anti-human IgG (AHC) biosensors, KIR protein as analyte, 6 two-fold dilutions from 250 nM; 25 °C; 20 mM MOPS pH 7.5, 150 mM NaCl, 0.1% BSA, 0.02% Tween-20; global 1:1 fit; average of 3 technical replicates
T6 construct: also called KIR2DL3 H50R variant; source: HEK 293F, purified as the CHO-S protein (HisTrap FF)

KIR2DL3 F45Y = target: T7, KIR2DL3 F45Y (Homo sapiens, UniProt P43628-1, F45Y); assay: as above
T7 construct: also called KIR2DL3 F45Y variant; source: HEK 293F, purified as the CHO-S protein (HisTrap FF)

[2] = target: T8, Commercially sourced KIR2DL1 (Sino Biological 13,145-H08H) (Homo sapiens; allele of bought protein …, UniProt P43626-1); assay: as above
T8 construct: KIR2DL1, commercially sourced recombinant protein; source: bought: Sino Biological

[3] = target: T9, wild-type KIR2DL3 ectodomain (HEK 293F) (Homo sapiens, UniProt P43628-1); assay: as above
T9 construct: Same construct as m3 but expressed in HEK 293F cells for BLI; source: HEK 293F, purified as the CHO-S protein (HisTrap FF)

KIR2DL3 D47N = target: T10, KIR2DL3 D47N (Homo sapiens, UniProt P43628-1, D47N); assay: BLI; lirilumab (IgG1) loaded on anti-human IgG (AHC) biosensors, KIR2DL3 D47N as analyte, two-fold dilutions from 500 nM; 25 °C; 20 mM MOPS pH 7.5, 150 mM NaCl, 0.1% BSA, 0.02% Tween-20; steady state equilibrium model (kinetic fit unsuccessful); average of 3 technical replicates
T10 construct: also called KIR2DL3 D47N variant; KIR2DL3 D47N mutant; source: HEK 293F, purified as the CHO-S protein (HisTrap FF)
T10 sequence (P43628 22-245 D68N): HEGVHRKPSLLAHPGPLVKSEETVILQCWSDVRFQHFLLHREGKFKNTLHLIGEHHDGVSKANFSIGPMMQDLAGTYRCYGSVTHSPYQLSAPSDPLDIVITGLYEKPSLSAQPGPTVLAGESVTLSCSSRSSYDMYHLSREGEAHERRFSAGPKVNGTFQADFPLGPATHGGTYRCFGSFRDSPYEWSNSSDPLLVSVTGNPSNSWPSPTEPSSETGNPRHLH

T1 sequence (P43628 22-245 F66Y): as the sequence (P43628 22-245 D68N) above, with F45Y, N47D counted along it
T4 sequence (P43628 22-245 H71R): as the sequence (P43628 22-245 D68N) above, with N47D, H50R counted along it
T2 sequence (P43626 22-245): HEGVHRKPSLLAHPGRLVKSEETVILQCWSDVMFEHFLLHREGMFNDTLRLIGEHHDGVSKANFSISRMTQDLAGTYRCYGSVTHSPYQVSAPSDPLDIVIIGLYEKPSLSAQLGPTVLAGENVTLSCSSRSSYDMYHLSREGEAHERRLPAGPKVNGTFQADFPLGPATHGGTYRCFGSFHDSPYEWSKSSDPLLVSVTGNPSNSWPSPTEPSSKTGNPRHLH
T3 sequence (P43628 22-245): as the sequence (P43628 22-245 D68N) above, with N47D counted along it
T5 sequence (P43628 22-245 D68N): as the sequence (P43628 22-245 D68N) above
T7 sequence (P43628 22-245 F66Y): as the sequence (P43628 22-245 D68N) above, with F45Y, N47D counted along it
T6 sequence (P43628 22-245 H71R): as the sequence (P43628 22-245 D68N) above, with N47D, H50R counted along it
T8 sequence (P43626 22-245): as the sequence (P43626 22-245) above
T9 sequence (P43628 22-245): as the sequence (P43628 22-245 D68N) above, with N47D counted along it

Kd (KIR2DL3 F45Y ectodomain): 10.2 nM and 10.8 nM and 8.5 nM | koff (KIR2DL3 F45Y ectodomain): 0.00125 s⁻¹ and 0.00155 s⁻¹ and 0.00145 s⁻¹ | kon (KIR2DL3 F45Y ectodomain): 122000 M⁻¹ s⁻¹ and 144000 M⁻¹ s⁻¹ and 170000 M⁻¹ s⁻¹ | Kd [1]: 11.5 nM and 9.6 nM and 8.8 nM | koff [1]: 0.000954 s⁻¹ and 0.000995 s⁻¹ and 0.000947 s⁻¹ | kon [1]: 83200 M⁻¹ s⁻¹ and 104000 M⁻¹ s⁻¹ and 107000 M⁻¹ s⁻¹ | Kd (KIR2DL3 ectodomain): 1.64 nM and 2.83 nM and 3.78 nM | koff (KIR2DL3 ectodomain): 0.000366 s⁻¹ and 0.000622 s⁻¹ and 0.000892 s⁻¹ | kon (KIR2DL3 ectodomain): 224000 M⁻¹ s⁻¹ and 220000 M⁻¹ s⁻¹ and 236000 M⁻¹ s⁻¹ | Kd (KIR2DL3 H50R ectodomain): 7.98 nM and 10.6 nM and 15 nM | koff (KIR2DL3 H50R ectodomain): 0.00195 s⁻¹ and 0.00244 s⁻¹ and 0.00317 s⁻¹ | kon (KIR2DL3 H50R ectodomain): 244000 M⁻¹ s⁻¹ and 231000 M⁻¹ s⁻¹ and 212000 M⁻¹ s⁻¹ | Kd (KIR2DL3 D47N ectodomain): 1400 nM and 1900 nM
B1: lirilumab (IgG1) (antibody, V domains shown)
VH: QVQLVQSGAEVKKPGSSVKVSCKASGGTFSFYAISWVRQAPGQGLEWMGGFIPIFGAANYAQKFQGRVTITADESTSTAYMELSSLRSDDTAVYYCARIPSGSYYYDYDMDVWGQGTTVTVSS
VL: EIVLTQSPVTLSLSPGERATLSCRASQSVSSYLAWYQQKPGQAPRLLIYDASNRATGIPARFSGSGSGTDFTLTISSLEPEDFAVYYCQQRSNWMYTFGQGTKLEIK

Kd (KIR2DL3 H50R): 11.2 nM | Kd (KIR2DL3 F45Y): 9.9 nM | Kd [2]: 10 nM | Kd [3]: 2.8 nM | Kd (KIR2DL3 D47N): 1650 nM
B2: lirilumab (IgG1) (antibody, V domains shown)
VH: B1 VH
VL: B1 VL
